Drawing on patent publication US20210253718A1, “FRIZZLED5 PROTEIN-BINDING AGENTS” (Modmab Therapeutics Corporation, priority 2016, published 2021), this text covers median fluorescence for 2 molecules.

This test deals with T1, FZD8 cysteine-rich domain (CRD), MYC-tagged and GPI-anchored on CHO cells (human).
T1 sequence (chain, GPI anchor): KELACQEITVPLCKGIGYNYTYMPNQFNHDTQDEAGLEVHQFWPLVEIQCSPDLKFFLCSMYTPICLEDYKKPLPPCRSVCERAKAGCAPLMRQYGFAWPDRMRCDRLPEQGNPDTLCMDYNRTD
Nature of the test: flow cytometry, CHO-CRD cells. On the technique in general: In flow cytometry, cells or beads pass a laser one at a time.

B1: Fab-2925 (Fab, V domains shown)
VH: EVQLVESGGGLVQPGGSLRLSCAASGFNLSYSSMHWVRQAPGKGLEWVASIYPSYGSTYYADSVKGRFTISADTSKNTAYLQMNSLRAEDTAVYYCARYGYFGLDYWGQGTLVTVSS
VL: DIQMTQSPSSLSASVGDRVTITCRASQSVSSAVAWYQQKPGKAPKLLIYSASSLYSGVPSRFSGSRSGTDFTLTISSLQPEDFATYYCQQAWVYASLFTFGQGTKVEIK
B1 displayed a median fluorescence of 7.7.

B2: Fab-2905 (Fab, V domains shown)
VH: EVQLVESGGGLVQPGGSLRLSCAASGFNLSYYYMHWVRQAPGKGLEWVASIYSSYSYTSYADSVKGRFTISADTSKNTAYLQMNSLRAEDTAVYYCARSGYALDYWGQGTLVTVSS
VL: DIQMTQSPSSLSASVGDRVTITCRASQSVSSAVAWYQQKPGKAPKLLIYSASSLYSGVPSRFSGSRSGTDFTLTISSLQPEDFATYYCQQSSWYYGYPFTFGQGTKVEIK
Consider B2, for which the median fluorescence was 8.17.
